Test results taken from paper PMC5823869.

Target: YAP2L/TAZ in cells
Test: non-reducing SDS-PAGE with immunoblot; cell lysates (15 µg of transfected HEK293; 30 µg of H460 for endogenous TAZ) in SDS sample buffer without DTT, 3 min at 60 °C; blot with anti-FLAG, anti-HA or anti-TAZ; series with increasing DTT run beside

percent of the total protein that is dimer: 20 to 30%
Substance: YAP2L/TAZ in cells
